Fold reduction of binding against full-length HsiC2 data for 1 substance are collected here from article PMC4239648.

This test has as its target HsiC2Δ1–30, bacterial two-hybrid fusion (P. aeruginosa PAO1). Kind of test: two-hybrid; bacterial two-hybrid (BTH): T25 and T18 fusions of B. pertussis adenylate cyclase co-transformed in E. coli DHM1; spots on MacConkey maltose and X-gal LB agar, 30 °C, at least 48 h; β-galactosidase activity in Miller units.

The substance “ClpV2, full length, bacterial two-hybrid fusion (enzyme)” came in with a fold reduction of binding against full-length HsiC2 of 10 fold.
